Data: a protein production outcome set (Wang et al. 2014)

Experiment: label from the status in PepcDB records

Row | Sequence | protein production
1 | EEWLDILGNGLLRKKTLVPGPPGSSRPVKGQVVTVHLQTSLENGTRVQEEPELVFTLGDCDVIQALDLSVPLMDVGETAMVTADSKYCYGPQGSRSPYIPPHAALCLEVTLKTAVDRPDLEM | not failed
2 | MNDGKATPGEAGCRENQLLKLPGFGNFTIIDRYIARQFLTIFLFALASFAALFILINLVENLDRFLDRHISFGRILIYYLSGLPDTFLLTSPLSVLLASLFVTGKLSMQSELPALKSAGMSLSRLMKPFLLVTMAIAALNTINSCFIAPAMYDWSKGFEKRYLKKQQDNGEEPLHIRESNNRILTVAKIGPDKKSATTVSLETFNGSQIVSRIDADSLRIITRHKYWIFYNTKQRTFSKGAETLVTRAGADTLKLSLAPNTFKMIDTDPDEMNIVQHIDFIWQKARSGLPGLERATVKLHTKLALPLASMIIVLIGVPLSSKKKRSGLAVEISISLLIGLLYLGMLKTIGSLGYDGLLNPVLAAWLPDILFIIAGTFLYRSADH | failed
3 | MQFIVSKKEFIPPVIAPDIIETLGDDYEIWTYEDYERLPPLLVGVYSYSAIPKCLAPLSTQGLVKSGVFRLQREFVPGLYGNGVYVVVIDTGVNYAQEAFMTPEGKTKIAVLWDQNTDTVYSEDEINAAILSENPYESIPGDEDGHGTFVASVICGNDRPQDDFAGVAPQAKLIVVKLKRAPQKLYDFYFIPDRKMVYSEVDVMRAVHFADEFAGQKGAPAVFCMALGCNNGSHTGAEDLSEYLDYITAKRGRAVVAAAGNEANSRHHYKGRITDTVDDIEINVEQDMDGFYLECWALSPELFTLSVISPSGQSNPAGVPMRIDSGEYSFLLEGTQVTIDYRQTGRQTRDLLIFIRFEKVVKGVWTIRVFPLSTIGGVFNMWLPMTGLLDADVSFIVSEPDTTLTMPSDAKLVITAGGYNSLNDAILLESGRGFDADGGIKPDLVAPAVDITGANLRGMYIALSGTSAAAAITAAVAALIMEWMIVRGNVLLANGVDIKNVMVRNCRRKEKTDYPNKIFGYGFMNGFANF | failed
4 | MTVPEEAQTLIGKHYRAPDHFLVGREKIREFAVAVKDDHPTHYSEPDAAAAGYPALVAPLTFLAIAGRRVQLEIFTKFNIPINIARVFHRDQKFRFHRPILANDKLYFDTYLDSVIESHGTVLAEIRSEVTDAEGKPVVTSVVTMLGEAAHHEADADATVAA | failed
5 | MASRGLDLWLDEHVWKRKQEIGVKGENLLLPDLWLDFLQLSPIFQRKLAAVIACVRRLRTQATVYPEEDMCMAWARFCDPSDIKVVILGQDPYHGGQANGLAFSVAYGFPVPPSLRNIYAELHRSLPEFSPPDHGCLDAWASQGVLLLNTILTVQKGKPGSHADIGWAWFTDHVISLLSERLKACVFMLWGAKAGDKASLINSKKHLVLTSQHPSPLAQNSTRKSAQQKFLGNNHFVLANNFLREKGLGEIDWRL | not failed
6 | MSRRGLLLMGQCMPCIKQNASKIRIRRMELDKNLNMYFKKDEFYFAHDPQKVCKTGDVVLIRELPERLTRLITHNVEKVVYPLGDITDPLTGKKVVVGNYREDIEMANQLFGKSEKAFDYEKAPPRGRLEGTKDFTHGETYIKYHEDGKDQPFAV | failed
7 | MPIFSFLLFVFISSFTPGPNNFLAMTYANQHGLKRSINFCFGVAFGFFILTSLCSFFNIVLINIIPIIEFPLKILGVAYMLYLAFKIITSKGGAGHNEKNNKNLFTVGIFLQFINPKGILFGLTVVSTFILPYYNSYSSFLLFSLFLGIVGLLSTFSWSLFGSMFQKLLLKHNQLFNIIMAVLLVFSAVSIVIH | failed
8 | MENKRNVCSLGESSIKRHKSDLSFSSKERKDKVGERISALQQIVSPYGKFPCSFVQVLSAPYLQTVPDATQEELEQYSLRNRGLCLVPMENTVGVAQSNGADIWAPVKTPLSPAFSVTSQSPFR | failed
9 | EQQADGTWLMDGWISIRKASNLLEHDLVDEAERYSTLGGYLLWQFGYIPAAGEQITVDGLIFEIVSVNKHNIGKVRVHRTQ | not failed
10 | MQDIFEEIIDYLKGIWLKRRYIIIATWLICPIGWYFVAAMPNVYQSEARVYVDTQSLLRPLLKGLTVETNPDTQIRLMVKTLLSRPNLERISRMTDLDVQASTPAQYEAIIKNLKDNIKISSARRENIYTLSIEDEDPEMAKNIVRSALTVFIENTLGETRSDSDSAQKFLNTQIKDYENRLSNSEARLTSFKQKYSGILPDQSGGYYAKLNGNREKLKAIELDLLENKTRLDSAKKQLAQSVVADTGSDNKIKSENSIQTTYDDRINELEVLLDNLKLRYTEKHPDVIETSRNLEHLNKLRSSEIEKYLAQNNENTGSLKRLSANPVIQEVQIHVNQLENLIASLNVRADNYRQRIIELENRVHTLPEIEAELIALNRGYGITKEKYEELLSRKETAQLAQQADETTDKIQFRVIDPPRKATKPSGPKRFLLFGVVTLIGFAVGIGLSLLMSQLNPVATSTAQLSKITGVPIFGVISANENLGLQQWHKKKTFIFIGSNVLLLCLLVLFVSYFLFPDTIQAPLKRIF | failed
11 | MSSRAKRLTHLASLPSMSRALLKKILHFDETLTVIFKQSHVQLSETYGLSTKKARHLYEHLRRVSTDFWSEYYEKKQIVPVTIFDKGYPNLLKEIYDPPFVLFCRGRMNTLYSEKRLAIVGTRKTSTTGLKSLELLIPPLLQDGWVIVSGFAAGVDIHAHQLTVKNGGQTIAVLAHGHDNLYPAAHRPFAEHEMVSQLMISEYPPYVKPRPWQFPERNRIISGLCAGTVVIEAKEKSGSLITADQALEQGRDVFAVPGAITNQKAAGTNQLIQQGAKLIQRADDIIEELCGFQQSCDSDKFF | failed
12 | MKKSKRKNAQAQEAQETEVLVQEEAEELPEFPEGEPDPDLEDPDLTLEDDLLDLPEEGEGLDLEEEEEDLPIPKISTSDPVRQYLHEIGQVPLLTLEEEVELARKVEEGMEAIKKLSEITGLDPDLIREVVRAKILGSARVRHIPGLKETLDPKTVEEIDQKLKSLPKEHKRYLHIAREGEAARQHLIEANLRLVVSIAKKYTGRGLSFLDLIQEGNQGLIRAVEKFEYKRRFKFSTYATWWIRQAINRAIADQARTIRIPVHMVETINKLSRTARQLQQELGREPTYEEIAEAMGPGWDAKRVEETLKIAQEPVSLETPIGDEKDSFYGDFIPDEHLPSPVDAATQSLLSEELEKALSKLSEREAMVLKLRKGLIDGREHTLEEVGAFFGVTRERIRQIENKALRKLKYHESRTRKLRDFLD | not failed
13 | MKFEILQQLNAERAARRPAIVVTDTATGAQRLVKAADIAADPLAAELGKQLRMGKSASIEIDGRKLFLNVYAPTAKLVIVGAVHISQALAPLARSLGYDVTVVDPRTAFASPERFPDVPLIAEWPDVALPPLNIDHYTAFVALTHDPKIDDPALLHAFARDCFYIGALGSKKTHAKRLERLKGQGASDADLGRIHAPIGLAIGAVSPSEIAVSIMAEITAALRLPASSKAAAA | failed
14 | MTALKICLIGGSGFIGRHLAAQLASRGHRITIASRRTGLPDFRVLPSAELVSADIHDPGQLAGLIAGHDAVVSMVGILHGSRAQFEKAHAQLPEKIVDACRRQGVRRLVHVSALGAAQDAPSDYQQTKALGELAVESSGLDWTILRPSVVFGHGDAFLNMFAGLQKRLPVLPLAGAGCKMAPVWVEDVARAVCECLARKETEGRKLDLAGPETYTLAQLARLAGRASGHPRPVFGLPYGLAMLQAALMEWLPGPTLMSRDNVRSLQWDNVSDQPFPSALLGFEPAALSALAPGWLAGRDRNDTASRYRAKAAR | failed
15 | MSLKDMIDSIEQFAQTQADFPVYDCLGERRTYGQLKRDSDSIAAFIDSLALLAKSPVLVFGAQTYDMLATFVALTKSGHAYIPVDVHSAPERILAIIEIAKPSLIIAIEEFPLTIEGISLVSLSEIESAKLAEMPYERTHSVKGDDNYYIIFTSGTTGQPKGVQISHDNLLSFTNWMIEDAAFDVPKQPQMLAQPPYSFDLSVMYWAPTLALGGTLFALPKELVADFKQLFTTIAQLPVGIWTSTPSFADMAMLSDDFCQAKMPALTHFYFDGEELTVSTARKLFERFPSAKIINAYGPTEATVALSAIEITREMVDNYTRLPIGYPKPDSPTYIIDEDGKELSSGEQGEIIVTGPAVSKGYLNNPEKTAEAFFTFKGQPAYHTGDIGSLTEDNILLYGGRLDFQIKYAGYRIELEDVSQQLNQSPMVASAVAVPRYNKEHKVQNLLAYIVVKDGVKERFDRELELTKAIKASVKDHMMSYMMPSKFLYRDSLPLTPNGKIDIKTLINEVNNREGHHHHHH | not failed
16 | MKIEEVRFGLVKIDGKEFDHDIVIYPSGRIERRMKEISKKKHGTSHKLDPEELEKYLVEDFDVLLVGTGIYGMLSLLPESKKLVEDKEVIEKPTKEALKLLEELWGKKRILAIIHVTC | not failed
